The values that follow come from doi:10.1101/2024.10.11.617762.

For this data set, the target named is SARS-CoV-2 nucleocapsid C-terminal domain (N-CTD) (SARS-CoV-2, UniProt P0DTC9 247-364). The data set can be described thus: fluorescence intensity.

Consider UCUCUAAACG (ssRNA) [FAM-labelled 10-mer TRS RNA probe], for which the binding result is “binds”.
